23 molecules from patent publication US20130345129A1 (OTSUKA CHEMICAL, published 2013) can be followed below.

No end group written: not given here. asialo oligosaccharide = asialo (digalactose) oligosaccharide chain

This assay has as its target T1, mouse GLP-1 receptor (mouse, UniProt O35659 22-463).
T1 sequence (looked up): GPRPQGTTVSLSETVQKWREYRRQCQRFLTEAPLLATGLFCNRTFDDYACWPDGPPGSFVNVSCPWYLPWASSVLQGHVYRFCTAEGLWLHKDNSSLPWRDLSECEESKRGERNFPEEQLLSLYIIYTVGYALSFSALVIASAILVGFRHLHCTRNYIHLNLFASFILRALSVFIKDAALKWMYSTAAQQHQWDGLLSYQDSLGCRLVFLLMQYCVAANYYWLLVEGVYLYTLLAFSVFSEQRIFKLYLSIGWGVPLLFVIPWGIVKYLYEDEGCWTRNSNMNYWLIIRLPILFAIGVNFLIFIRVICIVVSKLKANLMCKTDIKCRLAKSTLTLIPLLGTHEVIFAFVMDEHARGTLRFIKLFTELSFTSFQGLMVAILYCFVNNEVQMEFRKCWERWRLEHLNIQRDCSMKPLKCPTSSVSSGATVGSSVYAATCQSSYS
Nature of the assay: cell-based or functional assay.

Regarding HAEGTFTSDVSSYLEGQAC(disialo oligosaccharide)KEFIAWLVKGRG [25Cys GLP-1-disialo], the “Relative Activity (cAMP synthesis, EC50 relative to GLP-1 = 1)” value (shortened to “Relative Activity”) was < 0.1 relative (GLP-1 = 1).
With HAEGC(disialo oligosaccharide)FTSDVSSYLEGQAAKEFIAWLVKGRG [11Cys GLP-1-disialo], the “Relative Activity” value was < 0.1 relative (GLP-1 = 1).
For the molecule HAEGTFTSDVSSYLEGQC(disialo oligosaccharide)AKEFIAWLVKGRG [24Cys GLP-1-disialo], the “Relative Activity” value is < 0.1 relative (GLP-1 = 1).

B1: 6Cys GLP-1-disialo (peptide)
peptide: CHAEGTFTSDVSSYLEGQAAKEFIAWLVKGRG
modifications: disialo oligosaccharide chain added Cys at position 6 (added before 7His; chain attached to Cys with bromoacetamidyl disialo oligosaccharide)
On to B1, for which the “Relative Activity” value was < 0.1 relative (GLP-1 = 1).
To HAC(disialo oligosaccharide)GTFTSDVSSYLEGQAAKEFIAWLVKGRG [9Cys GLP-1-disialo] belongs < 0.1 relative (GLP-1 = 1); to HAEGTFTSDVSSYLEGQAAKEFIAWLVKGC(disialo oligosaccharide)G [36Cys GLP-1-disialo], 1.9 relative (GLP-1 = 1); to HAEGTFTSDC(disialo oligosaccharide)SSYLEGQAAKEFIAWLVKGRG [16Cys GLP-1-disialo], < 0.1 relative (GLP-1 = 1).
The value for HAEGTFTSDVSSYLEGQAAKEFIAWLVC(disialo oligosaccharide)GRG [34Cys GLP-1-disialo] was 0.7 relative (GLP-1 = 1); that for HAEGTFTSDVSSYC(disialo oligosaccharide)EGQAAKEFIAWLVKGRG [20Cys GLP-1-disialo] was < 0.1 relative (GLP-1 = 1); that for HAEGTFTC(disialo oligosaccharide)DVSSYLEGQAAKEFIAWLVKGRG [14Cys GLP-1-disialo] was < 0.1 relative (GLP-1 = 1).
In the case of HAEGTFTSDVSSYLEC(disialo oligosaccharide)QAAKEFIAWLVKGRG [22Cys GLP-1-disialo], the “Relative Activity” value is 1 relative (GLP-1 = 1).
HAEGTFTSDVSSYLEGQAAC(disialo oligosaccharide)EFIAWLVKGRG [26Cys GLP-1-disialo]: the “Relative Activity” value was 0.2 relative (GLP-1 = 1).
In the case of HAEGTFTSDVSSYLEGQAAKC(disialo oligosaccharide)FIAWLVKGRG [27Cys GLP-1-disialo], the “Relative Activity” value is 0.2 relative (GLP-1 = 1).
Consider HAEGTFTSDVSSYLEGQAAKEC(disialo oligosaccharide)IAWLVKGRG [28Cys GLP-1-disialo], for which the “Relative Activity” value was < 0.1 relative (GLP-1 = 1).
HAEGTFTSDVSC(disialo oligosaccharide)YLEGQAAKEFIAWLVKGRG [18Cys GLP-1-disialo]: the “Relative Activity” value is < 0.1 relative (GLP-1 = 1).
To HAEGTFTSDVSSYLEGQAAKEFIAWLVC(asialo oligosaccharide)GRG [34Cys GLP-1-asialo] belongs 2.2 relative (GLP-1 = 1).
The value for HAEGTFTSDVSSYLEGQAAKEFIC(disialo oligosaccharide)WLVKGRG [30Cys GLP-1-disialo] was 0.6 relative (GLP-1 = 1); that for HAEGTC(disialo oligosaccharide)TSDVSSYLEGQAAKEFIAWLVKGRG [12Cys GLP-1-disialo] was < 0.1 relative (GLP-1 = 1).
Turning to HAEC(disialo oligosaccharide)TFTSDVSSYLEGQAAKEFIAWLVKGRG [10Cys GLP-1-disialo], the “Relative Activity” value is < 0.1 relative (GLP-1 = 1).
For HAEGTFTSDVSSYLEGQAAC(asialo oligosaccharide)EFIAWLVKGRG [26Cys GLP-1-asialo], the “Relative Activity” value was 0.8 relative (GLP-1 = 1).
HC(disialo oligosaccharide)EGTFTSDVSSYLEGQAAKEFIAWLVKGRG [8Cys GLP-1-disialo]: the “Relative Activity” value was < 0.1 relative (GLP-1 = 1).
With HAEGTFTSDVSSYLEGQAAKEFIAWLVKGRGC (disialo oligosaccharide chain added Cys at position 38 (added after 37Gly)) [38Cys GLP-1-disialo], the “Relative Activity” value is 1.9 relative (GLP-1 = 1).
As to HAEGTFTSDVSSYLEGQAAKEFIAWC(disialo oligosaccharide)VKGRG [32Cys GLP-1-disialo], the “Relative Activity” value was < 0.1 relative (GLP-1 = 1).
